This note sets out measurements from patent publication US20160297884A1 (Pfizer, published 2016).

One assay has as its target T1, Human BCMA (human, UniProt Q02223 1-54, limits assumed).
T1 construct: Soluble analyte in SPR; construct not described; also called huBCMA; B-cell maturation antigen
T1 sequence (looked up): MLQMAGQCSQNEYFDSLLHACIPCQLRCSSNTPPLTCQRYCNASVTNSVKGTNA
Nature of the assay: SPR, IgG immobilised, 25 C. The method, then: (§1) All experiments were performed on a Bio-Rad Proteon XPR36 surface Plasmon resonance biosensor (Bio-Rad, Hercules, Calif.). […] The analysis temperature for the immobilization was 25° C. and the running buffer was HBS-T+(10 mM HEPES, 150 mM NaCl, 0.05% Tween-20, pH 7.4). Channels were activated in the analyte (horizontal) direction by injecting a mixture of 1 mM ECD and 0.25 mM NHS for 3 minutes at a flow rate of 30 μL/min. IgGs were immobilized on the activated spots by injecting them in the ligand (vertical) direction at 20 μg/mL in 10 mM Acetate pH 4.5 buffer for 1.5 minutes at […]. The activated surfaces were blocked by injecting 1M ethanolamine, pH 8.5 in the analyte direction for 3 minutes at 30 μL/min.
(§2) The analysis temperature for the BCMA binding analysis was 37° C. or 25° C. in a running buffer of HBS-T+, supplemented with 1 mg/mL BSA. A kinetic titration method was employed for the interaction analysis as described in Abdiche, et al. Human BCMA (huBCMA) or cynomolgus monkey BCMA (cyBCMA) analyte was injected in the analyte direction using a series of injections from low to high concentration. The concentrations used were 0.08 nM, 0.4 nM, 2 nM, 10 nM and 50 nM (a 5-membered series, with a 5-fold dilution factor and top concentration of 50 nM). The association time for a given analyte dilution was two minutes. Immediately after the 50 nM BCMA injection, dissociation was monitored for 2 hours.
(§3) The sensorgrams were double-referenced and fit to a 1:1 Langmuir with mass transport kinetic titration model in BIAevaluation Software version 4.1.1 (GE Lifesciences, Piscataway, N.J.).

Another assay has as its target T2, cynomolgus monkey BCMA (cynomolgus monkey, UniProt A0A2K5UD97 1-53).
T2 construct: Soluble analyte in SPR; construct not described; also called cyBCMA; Cyno BCMA
In words: SPR, IgG immobilised, 25 C. As to the method: as §1, §2, §3
On the technique in general: SPR reads the build-up and loss of mass on a sensor chip optically.

T2 sequence (A0A2K5UD97 entry or part of it): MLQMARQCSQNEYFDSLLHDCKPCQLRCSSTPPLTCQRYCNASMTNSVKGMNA

B1: L1.GDF/L3.KW/H3.AQ (antibody, V domains shown)
VH: EVQLLESGGGLVQPGGSLRLSCAASGFTFGSYAMTWVRQAPGKGLEWVSAISGSGGNTFYADSVKGRFTISRDNSKNTLYLQMNSLRAEDTAVYYCARVSPIAAQMDYWGQGTLVTVSS
VL: EIVLTQSPGTLSLSPGERATLSCRASQSVGDFYLAWYQQKPGQAPRLLIYGASSRATGIPDRFSGSGSGTDFTLTISRLEPEDFAVYYCKHYGWPPSFTFGQGTKVEIK
notes: IgG
As a reminder, the Kd is the concentration at which binding is half-saturated. The koff is the rate constant with which the complex falls apart. Broadly, the kon is the rate constant with which the complex forms. Turning to B1, in the assay with Human BCMA, the Kd stood at 4.37 nM, the “T ½” value worked out at 3.32 min, the koff came to 0.00348 s⁻¹ and the on-rate constant (kon) was 797000 M⁻¹ s⁻¹. In the assay with cynomolgus monkey BCMA, the affinity, expressed as Kd, was 7 nM; the “T ½” value turned out to be 2 min; the off-rate (koff) is 0.00565 s⁻¹; the on-rate constant (kon) is 802000 M⁻¹ s⁻¹.

B2: L1.LGF/L3.NY/H3.AP (antibody, V domains shown)
VH: EVQLLESGGGLVQPGGSLRLSCAASGFTFGSYAMTWVRQAPGKGLEWVSAISGSGGNTFYADSVKGRFTISRDNSKNTLYLQMNSLRAEDTAVYYCARVSPIAAPMDYWGQGTLVTVSS
VL: EIVLTQSPGTLSLSPGERATLSCRASQSLGSFYLAWYQQKPGQAPRLLIYGASSRATGIPDRFSGSGSGTDFTLTISRLEPEDFAVYYCQHYNYPPSFTFGQGTKVEIK
notes: IgG
For the molecule B2, in the assay with Human BCMA, the dissociation constant (Kd) was determined as 0.57 nM, the “T ½” value came to 21.7 min, the dissociation rate constant (koff) turned out to be 0.000533 s⁻¹ and the kon was determined as 936000 M⁻¹ s⁻¹. For the same molecule, in the assay with cynomolgus monkey BCMA, the Kd came to 6.7 nM, the “T ½” value came to 2.1 min, the koff was determined as 0.00557 s⁻¹ and the kon was found to be 830000 M⁻¹ s⁻¹.

B3: L1.LGF/L3.KW/P6E01 (antibody, V domains shown)
VH: EVQLLESGGGLVQPGGSLRLSCAASGFTFGSYAMTWVRQAPGKGLEWVSAISGSGGNTFYADSVKGRFTISRDNSKNTLYLQMNSLRAEDTAVYYCARVSPIASGMDYWGQGTLVTVSS
VL: EIVLTQSPGTLSLSPGERATLSCRASQSLGSFYLAWYQQKPGQAPRLLIYGASSRATGIPDRFSGSGSGTDFTLTISRLEPEDFAVYYCKHYGWPPSFTFGQGTKVEIK
notes: IgG
With B3, in the assay with Human BCMA, the equilibrium dissociation constant (Kd) was found to be 9.08 nM, the “T ½” value amounted to 1.53 min, the koff came out at 0.00755 s⁻¹ and the on-rate constant (kon) came to 831000 M⁻¹ s⁻¹. Also, in the assay with cynomolgus monkey BCMA, the dissociation constant Kd was determined as 42.8 nM, the “T ½” value worked out at 0.6 min, the off-rate (koff) stood at 0.0195 s⁻¹ and the kon is 455000 M⁻¹ s⁻¹.

B4: L1.GDF/L3.NY/P6E01 (antibody, V domains shown)
VH: EVQLLESGGGLVQPGGSLRLSCAASGFTFGSYAMTWVRQAPGKGLEWVSAISGSGGNTFYADSVKGRFTISRDNSKNTLYLQMNSLRAEDTAVYYCARVSPIASGMDYWGQGTLVTVSS
VL: EIVLTQSPGTLSLSPGERATLSCRASQSVGDFYLAWYQQKPGQAPRLLIYGASSRATGIPDRFSGSGSGTDFTLTISRLEPEDFAVYYCQHYNYPPSFTFGQGTKVEIK
notes: IgG
As for B4, in the assay with Human BCMA, the Kd was found to be 3.7 nM, the “T ½” value amounted to 1.95 min, the koff stood at 0.00592 s⁻¹ and the kon was 1.6e+06 M⁻¹ s⁻¹. Further, in the assay with cynomolgus monkey BCMA, the Kd is 6.4 nM, the “T ½” value came out at 1.5 min, the koff worked out at 0.00767 s⁻¹ and the kon stood at 1.2e+06 M⁻¹ s⁻¹.

B5: L1.LGF/L3.NY/H3.AL (antibody, V domains shown)
VH: EVQLLESGGGLVQPGGSLRLSCAASGFTFGSYAMTWVRQAPGKGLEWVSAISGSGGNTFYADSVKGRFTISRDNSKNTLYLQMNSLRAEDTAVYYCARVSPIAALMDYWGQGTLVTVSS
VL: EIVLTQSPGTLSLSPGERATLSCRASQSLGSFYLAWYQQKPGQAPRLLIYGASSRATGIPDRFSGSGSGTDFTLTISRLEPEDFAVYYCQHYNYPPSFTFGQGTKVEIK
notes: IgG
As to B5, in the assay with Human BCMA, the Kd was 1.27 nM, the “T ½” value turned out to be 11.9 min, the koff came to 0.00097 s⁻¹ and the on-rate (kon) amounted to 763000 M⁻¹ s⁻¹. Moreover, in the assay with cynomolgus monkey BCMA, binding was characterised by a dissociation constant (Kd) of 23.2 nM, the “T ½” value is 0.8 min, the koff amounted to 0.0148 s⁻¹ and the kon turned out to be 635000 M⁻¹ s⁻¹.

B6: L1.GDF/L3.PY/H3.AQ (antibody, V domains shown)
VH: EVQLLESGGGLVQPGGSLRLSCAASGFTFGSYAMTWVRQAPGKGLEWVSAISGSGGNTFYADSVKGRFTISRDNSKNTLYLQMNSLRAEDTAVYYCARVSPIAAQMDYWGQGTLVTVSS
VL: EIVLTQSPGTLSLSPGERATLSCRASQSVGDFYLAWYQQKPGQAPRLLIYGASSRATGIPDRFSGSGSGTDFTLTISRLEPEDFAVYYCQHYPYPPSFTFGQGTKVEIK
notes: IgG
For B6, in the assay with Human BCMA, the Kd came out at 9.49 nM, the “T ½” value came out at 0.86 min, the koff was determined as 0.0135 s⁻¹ and the association rate constant (kon) turned out to be 1.42e+06 M⁻¹ s⁻¹. For the same molecule, in the assay with cynomolgus monkey BCMA, the affinity, expressed as Kd, was 10.7 nM; the “T ½” value is 0.7 min; the koff is 0.0166 s⁻¹; the kon stood at 1.55e+06 M⁻¹ s⁻¹.

B7: L1.LGF/L3.KW/H3.AQ (antibody, V domains shown)
VH: EVQLLESGGGLVQPGGSLRLSCAASGFTFGSYAMTWVRQAPGKGLEWVSAISGSGGNTFYADSVKGRFTISRDNSKNTLYLQMNSLRAEDTAVYYCARVSPIAAQMDYWGQGTLVTVSS
VL: EIVLTQSPGTLSLSPGERATLSCRASQSLGSFYLAWYQQKPGQAPRLLIYGASSRATGIPDRFSGSGSGTDFTLTISRLEPEDFAVYYCKHYGWPPSFTFGQGTKVEIK
notes: IgG
For B7, in the assay with Human BCMA, the equilibrium dissociation constant (Kd) came to 1.82 nM, the “T ½” value worked out at 12.1 min, the off-rate (koff) was 0.000956 s⁻¹ and the kon was 524000 M⁻¹ s⁻¹. For the same molecule, in the assay with cynomolgus monkey BCMA, binding was put at a Kd of 6.7 nM, the “T ½” value came out at 3.3 min, the off-rate constant (koff) was determined as 0.00355 s⁻¹ and the association rate constant (kon) amounted to 527000 M⁻¹ s⁻¹.

B8: L1.LGF/L3.KW/H3.AP (antibody, V domains shown)
VH: EVQLLESGGGLVQPGGSLRLSCAASGFTFGSYAMTWVRQAPGKGLEWVSAISGSGGNTFYADSVKGRFTISRDNSKNTLYLQMNSLRAEDTAVYYCARVSPIAAPMDYWGQGTLVTVSS
VL: EIVLTQSPGTLSLSPGERATLSCRASQSLGSFYLAWYQQKPGQAPRLLIYGASSRATGIPDRFSGSGSGTDFTLTISRLEPEDFAVYYCKHYGWPPSFTFGQGTKVEIK
notes: IgG
As to B8, in the assay with Human BCMA, the equilibrium dissociation constant (Kd) amounted to 2.44 nM, the “T ½” value stood at 5.1 min, the koff came to 0.00227 s⁻¹ and the kon turned out to be 928000 M⁻¹ s⁻¹. In the assay with cynomolgus monkey BCMA, binding was characterised by a dissociation constant (Kd) of 27.8 nM, the “T ½” value is 0.7 min, the koff was 0.0154 s⁻¹ and the on-rate (kon) was 554000 M⁻¹ s⁻¹.

B9: L1.GDF/L3.NY/H3.AP (antibody, V domains shown)
VH: EVQLLESGGGLVQPGGSLRLSCAASGFTFGSYAMTWVRQAPGKGLEWVSAISGSGGNTFYADSVKGRFTISRDNSKNTLYLQMNSLRAEDTAVYYCARVSPIAAPMDYWGQGTLVTVSS
VL: EIVLTQSPGTLSLSPGERATLSCRASQSVGDFYLAWYQQKPGQAPRLLIYGASSRATGIPDRFSGSGSGTDFTLTISRLEPEDFAVYYCQHYNYPPSFTFGQGTKVEIK
notes: IgG
With B9, in the assay with Human BCMA, the Kd is 1 nM, the “T ½” value turned out to be 8.21 min, the off-rate (koff) was found to be 0.00141 s⁻¹ and the kon was 1.41e+06 M⁻¹ s⁻¹. Moreover, in the assay with cynomolgus monkey BCMA, binding was put at a Kd of 5.2 nM, the “T ½” value is 1.6 min, the dissociation rate constant (koff) is 0.00702 s⁻¹ and the kon was determined as 1.36e+06 M⁻¹ s⁻¹.

B10: L1.GDF/L3.NY/H3.AL (antibody, V domains shown)
VH: EVQLLESGGGLVQPGGSLRLSCAASGFTFGSYAMTWVRQAPGKGLEWVSAISGSGGNTFYADSVKGRFTISRDNSKNTLYLQMNSLRAEDTAVYYCARVSPIAALMDYWGQGTLVTVSS
VL: EIVLTQSPGTLSLSPGERATLSCRASQSVGDFYLAWYQQKPGQAPRLLIYGASSRATGIPDRFSGSGSGTDFTLTISRLEPEDFAVYYCQHYNYPPSFTFGQGTKVEIK
notes: IgG
In the case of B10, in the assay with Human BCMA, binding was characterised by a dissociation constant (Kd) of 4.44 nM, the “T ½” value worked out at 2.87 min, the koff is 0.00403 s⁻¹ and the kon was 907000 M⁻¹ s⁻¹. Moreover, in the assay with cynomolgus monkey BCMA, binding was characterised by a dissociation constant (Kd) of 24.3 nM, the “T ½” value turned out to be 0.5 min, the dissociation rate constant (koff) came to 0.0219 s⁻¹ and the association rate constant (kon) turned out to be 900000 M⁻¹ s⁻¹.

B11: L1.GDF/L3.NY/H3.AQ (antibody, V domains shown)
VH: EVQLLESGGGLVQPGGSLRLSCAASGFTFGSYAMTWVRQAPGKGLEWVSAISGSGGNTFYADSVKGRFTISRDNSKNTLYLQMNSLRAEDTAVYYCARVSPIAAQMDYWGQGTLVTVSS
VL: EIVLTQSPGTLSLSPGERATLSCRASQSVGDFYLAWYQQKPGQAPRLLIYGASSRATGIPDRFSGSGSGTDFTLTISRLEPEDFAVYYCQHYNYPPSFTFGQGTKVEIK
notes: IgG
As for B11, in the assay with Human BCMA, binding was characterised by a dissociation constant (Kd) of 0.73 nM, the “T ½” value amounted to 16 min, the koff was determined as 0.000722 s⁻¹ and the association rate constant (kon) was found to be 984000 M⁻¹ s⁻¹. In the assay with cynomolgus monkey BCMA, binding was characterised by a dissociation constant (Kd) of 1.2 nM, the “T ½” value was found to be 8.5 min, the koff amounted to 0.00136 s⁻¹ and the on-rate constant (kon) was 1.18e+06 M⁻¹ s⁻¹.

B12: L1.LGF/L3.KW/H3.AL (antibody, V domains shown)
VH: EVQLLESGGGLVQPGGSLRLSCAASGFTFGSYAMTWVRQAPGKGLEWVSAISGSGGNTFYADSVKGRFTISRDNSKNTLYLQMNSLRAEDTAVYYCARVSPIAALMDYWGQGTLVTVSS
VL: EIVLTQSPGTLSLSPGERATLSCRASQSLGSFYLAWYQQKPGQAPRLLIYGASSRATGIPDRFSGSGSGTDFTLTISRLEPEDFAVYYCKHYGWPPSFTFGQGTKVEIK
notes: IgG
B12: in the assay with Human BCMA, the affinity, expressed as Kd, was 2.87 nM; the “T ½” value was found to be 9.4 min; the dissociation rate constant (koff) stood at 0.00123 s⁻¹; the kon was 428000 M⁻¹ s⁻¹. Besides, in the assay with cynomolgus monkey BCMA, the Kd was 41.8 nM, the “T ½” value is 1 min, the koff stood at 0.0121 s⁻¹ and the kon came out at 290000 M⁻¹ s⁻¹.
